From the DeepSol protein solubility set

Assay: soluble on expression in E. coli; label from the status in PepcDB or PDB records

Sequence	soluble on expression in E. coli
MTAHFRPAVYDLPRDGHTVFRWEHPPQQATVELERLQRKQSLAAAFRVFARLGFDMGGAGHITVRDPGRPDHFWVNPVGVYFGHVRVRDLLLVNPEGAVIEGEGALNLAAFAIHAALHEAHPEVVAAAHAHSLYGKAWSSLGRLLDPLTQDACAFYERHGLFDNFSGVVLEASEGVRIAAALAGRKALILQNHGLLTVGETVEAAVWRFIAMDNAAQTQLLAEAAGTPRPIPHEVARHTARQVGTEFGGWFSFQPYRERIVREEPDFLDLEHHHHHH	not soluble
YCICNQVSYGEMVGCDNQDCPIEWFHYGCVGLTEAPKGKWYCPQCTAAMKRRGSRHK	soluble
MSLKILVYGINYSPELTGIGKYTGEMVAWMAQEGHEVRVITAPPYYPQWKVGERYSAWRYRWEEGEATVWRCPLYVPKQPSTLKRLLHLGSFALSSFFPLMAQRRWKPDRIIGVVPTLFCTPGMRLLATLSGARTVLHIQDYEVDAMLGLGMAGKGKRGSVARLATAFERSALRNVDNVSTISRSMMNKAREKGVAAEKILFFPNWSEVARFQDVNDADVTALRQQLGLPEGKKIVLYSGNIGEKQGLEKVIDAAERLRDRPLIFAIVGQGGGKARMENMARERGLANIKFLPLQPYDALPALLKMGDCHLVVQKRGAADAVLPSKLTNILAVGGNAVITAEPHTELGQLCARYPGIAVCVEPESTDALVDGISQALAMPKNNMTAREYAERTLNKENVLRQFIADIRGEGHHHHHH	soluble
MAHHHHHHMDEIKWPLRLLQILRNHLEQVDHPHEPRTLPIAAKCGQGGVLAFLTDVDDDVRRRTGASECITACCRGLVLDMIEQCCTLLFLSSKERRVINMAAVQREKRVVARGVGKRRRGDQGETTEETAIGETDNSQRKCAAVLPLEYLLRLFVALPSLLAHYDKLGGSTMPAAFKQPLWNYVNAVLDIMKDMTFLDPSEYIPLR	not soluble
SSKALLALKSQVEKRKAELQTQNRTKKWKRIGDQWKEEDKIQEQETFLEAHSPIESKQENGTETSNKEPPLLKEEVIERLRAWEQPATLFGETDYERYIRLRDLELRNSEESKGQRNIFQQKLRQFKEKDELENFYRVTEMELPSKGSAAQKVKEEIYAAEEGPEFFKTPEEYCFRYMRRLLKMWKAEVEQLDEETKRTSLGRKTLATFEQTKEYLKPLFRKLKKQQLDKSILTSLEKILRYVEQREYVLANDEYLRLAIGNAPWPVGATMVGIHARTAREKISEGKIAHVMNDEETRKYIQAVKRLITLSQKWYPTVPSKMVVG	soluble
NMDVDIMSNQDEWRLYRYFIGRSKQTYARPSGSGTSTNEILQEGYYKVPIFARSRYWFNGEYWPALFEQAYANWKFPNDSKYNAILQIGGGWPEEALCELSGDSWFTSSGKLMLSSFTDLSLLNFMKSMCYSWKTIKPMVIVTPCWEPLPPMMPGIAAYH	not soluble
PVKPVAPGEQQKNWAHWGNTTHGDRFAALDQINKQNVNQLQVAWVAHTGDIPQSNGSGAEDQNTPLQIGDTLYVCTPYSKVLALDVDSGKEKWRYDSKSSSPNWQRCRGLGYYEDSQAQTAPAAGTQPAACSRRLFLPTIDARLIAIDADTGKLCESFGDRGIVDLSVGMGEVKAGYYQQTSTPLVAGNVVVVGGRVADNYSTGEPPGVVRAFDVHTGKLAWAWDPGNPALTGVPPEGQTYTRGTPNVWSAMSYDAKLNLIYLPTGNATPDFFGGERTALDDKYSSSIVAVDATTGQVRWHFQTTHHDLWDFDLPSQPLLYDLPDGKGGTTPVLVQTSKQGMIFMLNRETGEPVAKVEERPVPAGNVKGERYSPTQPYSVGMPMIGNQTLTESDMWGATPIDLLLCRIQFKEMRHQGVFTPPGEDRSLQFPGSLGGMNWGSVSLDPNNSLMFVNDMRLGLANYMVPRAKVAKDASGIEMGIVPMEGTPFGAMRERFLSPLGIPCQKPPFGTMSAVDLKTGKLVWQVPVGTVEDTGPLGIRMHMPIPIGMPTLGASLATQSGLLFFAGTQDFYLRAFDTANGKEIWKSRLPVGSQSGPMTYVSPKTGKQYIIINAGGARQSPDRGDYIIAYALPDHH	not soluble
GPLGSMSVAGLKKQFHKATQKVSEKVGGAEGTKLDDDFKEMERKVDVTSRAVMEIMTKTIEYLAHLSSLLQAEALLAEAMLKFGRELGDDCNFGPALGEVGEAMRELSEVKDSLDIEVKQNFIDPLQNLHDKDLREIQHHLKKLEGRRLDFDYKKKRQGKIPDEELRQALEKFDESKEIAESSMFNLLEMDIEQVSQLSALVQAQLEYHKQAVQILQQVTVRLEERIRQA	soluble
SVFDIYKIGVGPSSSHTVGPMKAGKEFIDDLRAMGKLRDITKITVDVYGSLSLTGKGHHTDIAIIMGLAGNSPEKVDIDSIPGFIARVEETERLPVGMHCHTVSFPREGGMNFHKTNLELHENGMQIHAWIDDEKVYSKTYYSIGGGFIVDEENFGK	soluble
MGSSHHHHHHSSGLVPRGSHMIRNRVMNSVVNKYLLHNRSIMFKNDQDVERFFYKREIENRKKHKQPSTLNVKANLEKLSLDDMQVFRFNFRHQIDKKILYIHGGFNALQPSPFHWRLLDKITLSTLYEVVLPIYPKTPEFHIDDTFQAIQRVYDQLVSEVGHQNVVVMGDGSGGALALSFVQSLLDNQQPLPNKLYLISPILDATLSNKDISDALIEQDAVLSQFGVNEIMKKWANGLPLTDKRISPINGTIEGLPPVYMFGGGREMTHPDMKLFEQMMLQHHQYIEFYDYPKMVHDFPIYPIRQSHKAIKQIAKSIDEDVTQNN	soluble
MGSDKIHHHHHHMNQNLSSYWIFYTVANAGNISKAAKELYISQPAISKSIQKLEDGLECKLFSRSSRGVVLTDEGRLLYDHVSEAFEALNEGEEKLKRSIELGVGQLKIGVSSTLCKYMLLPYLKEFIHRNPHISISIECQSTNETLKLLDDDKIDIGLIGKPASLKTFNFYYLDNIEDIFVTTKDYLRNLSARGVKKSEILQNSTLMLLDKGNMTRKYIDDYLQENQIHVKDSIDISNMDLLIDFAKIGVGVACVIKSIVSKELADGTLIEIPLGIPIHKREVGFAYKESSKLSTSLQTFIKFYESYTPEDF	not soluble
MGSDKIHHHHHHMQLDKYTAKKIVKRAMKIIHHSVNVMDHDGVIIASGNSTRLNQRHTGAVLALRENRVVEIDQALAQKWNFEAQPGINLPIHYLGKNIGVVGISGEPTQVKQYAELVKMTAELIVEQQALLEQESWHRRYKEEFILQLLHCNLNWKEMEQQAKFFSFDLNKSRVVVLIKLLNPALDNLQNLINYLEQSEFAQDVAILSLDQVVVLKTWQNSTVLSAQMKTLLPADYSKQDYKIAVGACLNLPLFEQLPLSFQSAQSTLSYGLKHHPRKGIYVFDEHRLPVLLAGLSHSWQGNELIKPLSPLFSEENAILYKTLQQYFLSNCDLYLTAEKLFVHPNTLRYRLNKIEQITGLFFNKIDDKLTLYLGTLLEH	not soluble
MEFIVCNGCGCSPSKRQFFITACSHVFCETCRTTPTADFCHLCKIPTKTLKMDASLPKNVKKMFGDVGVMSTDIHKRLARVIGFQKIQKSIQLKMENKKSVMRKEQTKKVEKKTEEMHCQLSKLTSFEENNRKKLEDIERENEKLRNLISALELKVASSRDIDDDEFFMQGTPTSSNPSVAGSDVDNDELLDYDLLGLRNRSDSSSSNCSSQSNRGGSLF	not soluble
MKEKIPFYNEKEFHDMVKKTKKGTFSGWYIINKNNNSVEFSGSFNRQFKLNKPVIPVNTEYVTRKEFNEYKDSNDQRLTKIETELKSQGQRIQVVEDKVDRLTEVVMVQSQQIKTQGEAMNARMDRFESLVLKSLESIGNTLTDFGKRLDVIETRLDKIDPPK	soluble
SLNAFDELVFAPMYVTSVDGRQAGVFHAHKGRRLIAAHRKAGTTPFVGASRVNNSITGFADTPALFPGGWITLIYNGDGGTGHAKYQPAPFNASDDVIALEPISKQATEPALLLIASMLTLQCVPKFGFGYKLTLHRLDRQKIMIPVLTNADGEQVVNWSGLTRHGKRLLNEAKTRARAVRELTSTAKPKLPELNYMPMFITDVFESMNAAGKWFDFAKACLSGKPFAPYIARSGGGNGVGSFVPHQGFAPPNAGNAITIGVSTSTVFYQPVPFYTSKEIQVLRHHKLTADSGLILVALLREQMGKFQWGNGASLERLKATRIMVPAMVGADGEDVVDWDGLSRYGRALRARVELAINAVL	not soluble
GSSAVNQENERLMEEYERLASELLEWIRRTIPWLENRTPEKTMQAMQKKLEDFRDYRRKHKPPKVQEKCQLEINFNTLQTKLRISNRPAFMPSEGKMVSDIAGAWQRLEQAEKGYEEWLLNEIRRLERLEHLAEKFRQKASTHETWAYGKEQILLQKDYESASLTEVRALLRKHEAFESDLAAHQDRVEQIAAIAQELNELDYHDAVNVNDRCQKICDQWDRLGTLTQKRREALERMEKLLETIDQLHLEFAKRAAPFNNWMEGAMEDLQDMFIVHSIEEIQSLITAHEQFKATLPEADGERQSIMAIQNEVEKVIQSYNIRISSSNPYSTVTMDELRTKWDKVKQLVPIRDQSLQEELARQHANERLRRQFAAQANAIGPWIQNKMEEIARSSIQITGALEDQMNQLKQYEHNIINYKNNIDKLEGDHQLIQEALVFDNKHTNYTMEHIRVGWELLLTTIARTINEVETQILTRD	soluble
SRPVFAAKPDNEAIIDAQMKKPKVPVHAIATASHPMIRFIGHPEEQKNYDFFVPWLSKLPQWIAEGKQPYVMIHTADNIIAPELAANIYKNLQNHVALPDLAPFPANDGNSQLQMF	not soluble
DVGRVLWLAEDITQRKRRREKQALIERVFEVSPVGIVVVERSGRISLANDRAEELLGLEREKITRRRYDQPEWNIYYKDGTEIPDSEHPVTQVLESGEPVFGFEHWIELEDGSERWLSSNAAPILGDDGTVERVVVGLDD	not soluble
VDRYNDQASGRALIEIRLCNERATPMPIPIGLWMFQTKLHVNAGGADVFLPVCDVLEQDLAERDEEVRQLNLQYRNRLEYAIGRTCSAAWSVNGSRRPSAVWTTWLPVAETPHTRARSVENALLSMDSRGGVT	not soluble
SNAMIYPDETMLYAPVEWHDCSEGYTDIRYEKSTDGIAKITINRPQVRNAFRPLTVKEMIQALADARYDDNVGVIILTGEGDKAFCAGGDQKVRGDYGGYQDDSGVHHLNVLDFQRQIRTCPKPVVAMVAGYSIGGGHVLHMMCDLTIAAENAIFGQTGPKVGSFDGGWGASYMARIVGQKKAREIWFLCRQYDAQQALDMGLVNTVVPLADLEKETVRWCREMLQNSPMALRCLKAALNADCDGQAGLQELAGNATMLFYMTEEGQEGRNAFNQKRQPDFSKFKRNP	soluble
MGSDKIHHHHHHMKPSGSAICIETAAMTMRFGSFTALDAVSIKVQAGSFHALLGENGAGKSTLVKCIMGFYRQTSGQLLVEDREVEIASPRDAAALGLGMVYQHFTLVPSLTGAENLVISRNAVPAMINWRRERQALNDFMATMPFQIPLERPVRELSAGEKQKLEIIKQLYLGRRFLILDEPTSVLTPAEADDMLGLVRSMTERGALTVLMISHKFHEVRKFADAVSVLRRGKLVGSGRTADLTTQEMAAMMIGDVKLAELDSRLPVVEASPSILSIRGMKTRDRSGLKSIEVDDLKVRAGEIVGIAGISGNGQKELAEVLAGQRPAEAGDITVKDRPYTATRQETRAANVRFIPEEPLLNACAPRMSVAENLSFRDFDVDAKGKTRFWLNAKAMRETAGRLIADFKVKTASPASPIASLSGGNVQRAVLARELTGDVDLLVVSNPCFGLDFSAVAEIRARIMKARNNGSAVLLFSEDLDELMEMSDRIVVMSDGRLVYETPARGADIAVIGAHMAGHA	not soluble
SAPAQEHPEATVLFSDIVGFTEIASRSSPLEVCSLLDELYQRFDAAIEEYPQLYKVETIGDAYMVVCNVTVPCDDHADVLLEFALRMHEEASRVASSLGEPVRIRVGMHSGPVVAGVVGRKMPRFCLFGDTVNTASRMESHGEAGQIHISEACYCCLRSKERFEIRERGNITVKGKGTMRTYLLSPLERT	soluble
